Drawing on article PMC5242376 (Science signaling, 2016), this text covers Kd and EC50 for three molecules.

By Kd is commonly meant the free concentration of one partner at which half of the binding sites on the other are occupied at equilibrium, for simple one-to-one binding. For orientation: EC50 means the concentration at which the effect is half-maximal. A higher EC50 goes with weaker potency.

The target of test [1] is T1, His-tagged MuSK ectodomain (UniProt Q61006 22-494).
T1 sequence (looked up): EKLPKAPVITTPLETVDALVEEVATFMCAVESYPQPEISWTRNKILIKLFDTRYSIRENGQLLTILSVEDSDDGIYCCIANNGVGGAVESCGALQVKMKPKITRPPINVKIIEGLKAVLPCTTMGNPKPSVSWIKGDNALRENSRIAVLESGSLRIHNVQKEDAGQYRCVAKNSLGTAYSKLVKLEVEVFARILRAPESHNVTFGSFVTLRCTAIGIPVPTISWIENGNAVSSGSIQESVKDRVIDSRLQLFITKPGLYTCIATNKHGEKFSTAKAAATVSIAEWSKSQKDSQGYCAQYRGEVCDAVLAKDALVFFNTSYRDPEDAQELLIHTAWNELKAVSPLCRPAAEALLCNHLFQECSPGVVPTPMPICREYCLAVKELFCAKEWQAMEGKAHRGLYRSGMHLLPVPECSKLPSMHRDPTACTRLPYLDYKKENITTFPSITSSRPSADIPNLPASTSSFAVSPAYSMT
As to the kind of experiment: SPR. For orientation: Surface plasmon resonance follows binding to a sensor surface in real time, without labels.

Test [2] addresses T2, full-length Fc-fusion MuSK ectodomain (UniProt Q61006 22-494).
T2 sequence (looked up): T1 sequence (looked up)
Description: ELISA.

B1: recombinant human BMP7 (ligand, UniProt P18075 293-431, looked up)
chain: STGSKQRSQNRSKTPKNQEALRMANVAENSSSDQRQACKKHELYVSFRDLGWQDWIIAPEGYAAYYCEGECAFPLNSYMNATNHAIVQTLVHFINPETVPKPCCAPTQLNAISVLYFDDSSNVILKKYRNMVVRACGCH
As for B1, the affinity in test [1], expressed as Kd, was 11.8 nM. That is a double-digit nanomolar value.

B2: recombinant human BMP4 (ligand, UniProt P12644 293-408, looked up)
chain: SPKHHSQRARKKNKNCRRHSLYVDFSDVGWNDWIVAPPGYQAFYCHGDCPFPLADHLNSTNHAIVQTLVNSVNSSIPKACCVPTELSAISMLYLDEYDKVVLKNYQEMVVEGCGCR
In test [2], B2 registered an EC50 of about 30 nM.

B3: recombinant human BMP2 (ligand, UniProt P12643 283-396, looked up)
chain: QAKHKQRKRLKSSCKRHPLYVDFSDVGWNDWIVAPPGYHAFYCHGECPFPLADHLNSTNHAIVQTLVNSVNSKIPKACCVPTELSAISMLYLDENEKVVLKNYQDMVVEGCGCR
Molecule B3 came in with a Kd in test [1] of 5.6 nM.
